Where “and” joins values, the source holds several entries; their conditions need not be identical. Equal entries are not always repeated.
Experiments:
[1] = target: membrane-bound human FcγRIIB on Raji cells (human) (UniProt P31994); test: FACS on Raji cells (FACS021), constant aggregated IgG; no competitor (IMP series)
[2] = target: membrane-bound human FcγRIIB on Raji cells (human) (UniProt P31994); test: FACS on Raji cells, aggregated Beriglobin at 2.5 (µg/µL)
[3] = target: membrane-bound human FcγRIIB on Raji cells (human) (UniProt P31994); test: FACS: 0.1E6 Raji cells (FcγRIIB) with 2.5 µg aggregated Beriglobin at the stated pH; 1/200 anti-human IgG(H+L)-PE; secondary antibody alone in this panel 173; pH 6.7
[4] = target: membrane-bound human FcγRIIB on Raji cells (human) (UniProt P31994); test: FACS: 0.1E6 Raji cells (FcγRIIB) with 2.5 µg aggregated Beriglobin at the stated pH; 1/200 anti-human IgG(H+L)-PE; drawn table, secondary antibody control not subtracted; pH 6.7
[5] = target: membrane-bound human FcγRIIB on Raji cells (human) (UniProt P31994); test: FACS on Raji cells (FACS007), constant aggregated IgG; competitor SM101 0.25 µg/µL
[6] = target: membrane-bound human FcγRIIB on Raji cells (human) (UniProt P31994); test: FACS on Raji cells (FcγRIIB) with constant aggregated Beriglobin and no CSA; detected with anti-human IgG(H+L)-PE; secondary antibody alone (SM101_sek AK.fcs) has median 137
[7] = target: membrane-bound human FcγRIIB on Raji cells (human) (UniProt P31994); test: FACS: 0.1E6 Raji cells (FcγRIIB) with 2.5 µg aggregated Beriglobin at the stated pH; 1/200 anti-human IgG(H+L)-PE; drawn table, secondary antibody control not subtracted
[8] = target: membrane-bound human FcγRIIB on Raji cells (human) (UniProt P31994); test: FACS on Raji cells (FACS021), constant aggregated IgG; competitor SM101 Ref. Std. 0.5 µg/µL
[9] = target: membrane-bound human FcγRIIB on Raji cells (human) (UniProt P31994); test: FACS on Raji cells (FACS007), constant aggregated IgG; competitor SM101 0.0156 µg/µL
[10] = target: membrane-bound human FcγRIIB on Raji cells (human) (UniProt P31994); test: FACS on Raji cells (FACS021), constant aggregated IgG; competitor SM101 IMP 0.0156 µg/µL
[11] = target: membrane-bound human FcγRIIB on Raji cells (human) (UniProt P31994); test: FACS on Raji cells (FACS007), constant aggregated IgG; competitor SM101 0.0078 µg/µL
[12] = target: membrane-bound human FcγRIIB on Raji cells (human) (UniProt P31994); test: FACS: 0.1E6 Raji cells (FcγRIIB) with 2.5 µg aggregated Beriglobin at the stated pH; 1/200 anti-human IgG(H+L)-PE; drawn table, secondary antibody control not subtracted; pH 6.5
[13] = target: membrane-bound human FcγRIIB on Raji cells (human) (UniProt P31994); test: FACS on Raji cells (FACS021), constant aggregated IgG; competitor SM101 Ref. Std. 0.03125 µg/µL
[14] = target: membrane-bound human FcγRIIB on Raji cells (human) (UniProt P31994); test: FACS on Raji cells (FACS007), constant aggregated IgG; competitor SM101 0.0625 µg/µL

Sequence of UniProt P31994 (P31994 43-310): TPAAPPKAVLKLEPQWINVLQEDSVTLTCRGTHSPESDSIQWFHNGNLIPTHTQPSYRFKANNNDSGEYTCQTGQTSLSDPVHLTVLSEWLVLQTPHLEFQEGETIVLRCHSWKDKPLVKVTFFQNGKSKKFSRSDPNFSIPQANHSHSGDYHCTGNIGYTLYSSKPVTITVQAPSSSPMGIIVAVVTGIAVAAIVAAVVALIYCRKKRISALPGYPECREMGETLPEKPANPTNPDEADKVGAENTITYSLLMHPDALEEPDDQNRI

Substance: aggregated human IgG (aggregated Beriglobin, aggregated fraction isolated by size exclusion chromatography) (antibody)
- Median Signal [1]: 6930
- Median MFI [2]: 1350 and 1500 and 1000
- Median MFI at pH 6.7 (left panel) [3]: 578
- Median MFI at pH 6.7 [4]: 578
- Median Signal [5]: 197
- Median PE-A fluorescence, 0 µg/µL CSA [6]: 3480
- Median MFI at pH 7 [7]: 599
- Median MFI at pH 7.8 [7]: 363
- Median MFI at pH 8 [7]: 348
- Median MFI at pH 8.5 [7]: 246
- Median MFI at pH 9 [7]: 244
- Median MFI at pH 10 [7]: 177
- Median Signal [8]: 182
- Median Signal [9]: 2270
- Median Signal [10]: 3810
- Median Signal [11]: 3010
- Median MFI at pH 6.5 [12]: 703
- Median Signal [13]: 1640
- Median Signal [14]: 466

From US20160195541A1
